Laboratory results published in PMC11294453, “Cryo-EM structure of a conjugative type IV secretion system suggests a molecular switch regulating pilus biogenesis” (The EMBO Journal, 2024).

B1: TrwK/VirB4 (enzyme)
chain: MGAIESRKLLASETPVGQFIPYSHHVTDTIISTKNAEYLSVWKIDGRSHQSASEADVFQWIRELNNTLRGISSANLSLWTHIVRRRVYEYPDAEFDNVFCRQLDEKYRESFTGYNLMVNDLYLTVVYRPVSDKVLSFFAKRERETPDQKKHRQESCIKALEDINRTLGQSFKRYGAELLSVYEKGGHAFSAPLEFLARLVNGEHIPMPICRDRFSDYMAVNRPMFSKWGEVGELRSLTGLRRFGMLEIREYDDATEPGQLNVLLESDYEFVLTHSFSVLSRPAAKEYLQRHQKNLIDARDVATDQIEEIDEALNQLISGHFVMGEHHCTLTVYGETVQQVRDNLAHASAAMLDVAVLPKPVDLALEAGYWAQLPANWQWRPRPAPITSLNFLSFSPFHNFMSGKPTGNPWGPAVTILKTVSGTPLYFNFHASKEEEDATDKRLLGNTMLIGQSSSGKTVLLGFLLAQAQKFKPTIVAFDKDRGMEISIRAMGGRYLPLKTGEPSGFNPFQLPPTHANLIFLKQFVKKLAAAGGEVTHRDEEEIDQAITAMMSDSIDKSLRRLSLLLQFLPNPRSDDMDARPTVHARLVKWCEGGDYGWLFDNPTDALDLSTHQIYGFDITEFLDNPEARTPVMMYLLYRTESMIDGRRFMYVFDEFWKPLQDEYFEDLAKNKQKTIRKQNGIFVFATQEPSDALESNIAKTLIQQCATYIFLANPKADYEDYTQGFKLTDSEFELVRGLGEFSRRFLIKQGDQSALAEMNLGKFRTIVDGETVERDFDDELLVLSGTPDNAEIAESIIAEVGDDPAVWLPIFLDRVKAERSDV
notes: TrwK, the VirB4 ATPase of the type IV secretion system encoded by the conjugative plasmid R388; also called TrwK/VirB4_(central); TrwK/VirB4_(outside); source: R388 T4SS complexes expressed and purified from membranes as described previously (Mace et al, 2022)
B2: TrwJ/VirB5 (natural protein, UniProt O50331 23-226, looked up)
chain: QGIPVFDGTRALDFVQQFARMKEQLDTAKDQLAEAQRMYEAVTGGRGLGDLMRNAQLREYLPDDLRTVYDSANGGGYSGISGSINDILRDERLNGSVADMRRSIEERSRTARTTDKAVGCGPTKGHSNASRRLKDEISRTQDQKAIEELQARIAGEQAAIQNETTKLQMIAQLRQAEQALISEQRRERNMPILSSGNQGMPTIQ
notes: TrwJ, the VirB5 homologue of the type IV secretion system encoded by the conjugative plasmid R388; residues Gln23-Ala33 newly built; source: R388 T4SS complexes expressed and purified from membranes as described previously (Mace et al, 2022)
B3: TrwH/VirB7 (natural protein, UniProt O50334 17-47, looked up)
chain: CASAPKPKQPSDFNREPVNKTVPVEIQRGAL
notes: TrwH, the VirB7 homologue of the type IV secretion system encoded by the conjugative plasmid R388; source: R388 T4SS complexes expressed and purified from membranes as described previously (Mace et al, 2022)
B4: TrwM/VirB3 (natural protein)
chain: MKPPQQQHEAFPLFKGATRLPTILGEPMIPLMAMVMGVAVIALTVSIWWWALVPPLWFIMAQITKNDDKAFRIWWLWIDTKFRNRNKGFWGASSYSPANYRKRR
notes: TrwM, the VirB3 homologue of the type IV secretion system encoded by the conjugative plasmid R388; source: R388 T4SS complexes expressed and purified from membranes as described previously (Mace et al, 2022)
B5: TrwE/VirB10 (natural protein)
chain: MFGRKKGDVIDAGAELERAEQERIEGEYGASELASERRPHTPGARTLLMVLLCVIAVVLVTLSYKAYKVRGVVEDDDAQPQQVVRQVIPGYTPRPIRPEPENVPEPPQPTTSVPAIQPAPVTQPVRPQPTGPREKTPYELARERMLRSGLTAGSGGGEDLPRPQGGDVPAGGLMGGGGGGGELAEKLQPMRLSGSSAGRLGNRDMLITQGTQLDCVLETRLVTTQPGMTTCHLTRDVYSTSGRVVLLDRGSKVVGFYQGGLRQGQARIFVQWSRIETPSGVVINLDSPGTGPLGEAGLGGWIDRHFWERFGGAIMISLIGDLGDWASRQGSRQGNNSIQFSNTANGVESAAAEALRNSINIPPTLYKNQGERVNILVARDLDFSDVYSLESIPTK
notes: TrwE, the VirB10 homologue of the type IV secretion system encoded by the conjugative plasmid R388; residues 21-69, 83-101, 135-153 and 177-395 are described in the structures; the first 20 residues are invisible; also called TrwE/VirB10NTD; VirB10NT; source: R388 T4SS complexes expressed and purified from membranes as described previously (Mace et al, 2022)
B6: TrwG/VirB8 (natural protein)
chain: MSKKQPKPVKAEQLKSYYEESRGLERDLIGEFVKSRKTAWRVATASGLFGLLGMVCGIVGFSQPAPAPLVLRVDNATGAVDVVTTLREHESSYGEVVDTYWLNQYVLNREAYDYNTIQMNYDTTALLSAPAVQQDYYKLFDGSNARDRVLGNKARITVRVRSIQPNGRGQATVRFTTQQHNSNGTVERPQHQIATIGYTYIGAPMRSSDRLLNPLGFQVTSYRADPEILNN
notes: TrwG, the VirB8 homologue of the type IV secretion system encoded by the conjugative plasmid R388; also called TrwG/VirB8_(peri); TrwG/VirB8_(tail); source: R388 T4SS complexes expressed and purified from membranes as described previously (Mace et al, 2022)
B7: TrwF/VirB9 (natural protein)
chain: LDVPSSSRYDHRIRYVTYNPADVVQVDTVLGVATHIMLEEGEQYLTHAFGIPKPMPLPGRAGIFLSSRTAELANTNLIVVTDRRSYKFRLQMRNDRNGAMYELAFRYPDTQARQTREANARAAVEAAFEQRVGAYYNLKYMMSGDKDIAPVNAWDDGRFTYFKFSANADLPSIYFVDAEGNESLVPRTTVGSSNNIIAVHKVNPKWMIRLGNRALAIFNEAYDPNGVPNDTGTASPAVRRVNKGGN
notes: TrwF, the VirB9 homologue of the type IV secretion system encoded by the conjugative plasmid R388; NTD in the I-layer, CTD in the O-layer, linker helix residues 128 to 150; also called TrwF/VirB9NTD; VirB9CTD; source: R388 T4SS complexes expressed and purified from membranes as described previously (Mace et al, 2022)
B8: TrwI/VirB6 (natural protein)
chain: MAFELFTPLFNKIDQTTATYVTDISSRAIAAITPVVSVGLTLGFITYGWLIIRGAVEMPVAEFLNRCLRIGIIVSIALAGGLYQGEIANAITTVPDELASALLGNPTEGASAAALVDQSAQQGFDRASEAFEEAGFFSSDGLLYGLFGIIIPAGYGPAGAIGGAFLLLAKIALALLAGLGPLFILALIWQPTHRFFDQWAQQVLNYGLLIVLFAAVFGLLMQIFGSYMADLRFDGAQNVAYAIGGSVILSIVSIVLLMQLPSIASGLAGGIGLGYMWELRSMRSGAGAAMRGGRAMARGARAAPGAARGAAVGAANMAKTVATGGAGVARAAAGYFRGRKAG
notes: TrwI, the VirB6 homologue of the type IV secretion system encoded by the conjugative plasmid R388; TM region (α1 and α2) is residues 30-82; also called TrwI/VirB6TM; VirB6_(α1α2TM); source: R388 T4SS complexes expressed and purified from membranes as described previously (Mace et al, 2022)

Key:
[1] = target: the molecule itself; assay: cryo-EM structure; R388 T4SS complex purified from membranes; extended IMC protomer map without symmetry, 3.83 Å, with the Stalk-Arches-IMC map at 4.33 Å
TrwI/VirB6 = target: B8; assay: cryo-EM structure; R388 T4SS complex purified from membranes; Stalk map with C5 symmetry applied, 2.97 Å; conditions: both partners purified
TrwE/VirB10 [2] = target: B5; assay: cryo-EM structure; R388 T4SS complex purified from membranes; OMCC maps: O-layer with C14 symmetry (2.46 Å), I-layer with C16 symmetry (2.69 Å), OMCC conformations A, B and C without symmetry; conditions: both partners purified
TrwF/VirB9 = target: B7; assay: as above; conditions: both partners purified
TrwK/VirB4 = target: B1; assay: cryo-EM structure; R388 T4SS complex purified from membranes; extended IMC protomer map without symmetry, 3.83 Å, with the Stalk-Arches-IMC map at 4.33 Å; conditions: both partners purified
TrwE/VirB10 [3] = target: B5; assay: as above; conditions: both partners purified
[4] = target: the molecule itself; assay: cryo-EM structure; R388 T4SS complex purified from membranes; OMCC maps: O-layer with C14 symmetry (2.46 Å), I-layer with C16 symmetry (2.69 Å), OMCC conformations A, B and C without symmetry
TrwE/VirB10 [5] = target: B5; assay: cryo-EM structure; R388 T4SS complex purified from membranes; Arches map without symmetry, 6.22 Å; secondary structures only, no side chains; conditions: both partners purified
[6] = target: the molecule itself; assay: as above

B1
binding result [1]: binds

B2
binding result (TrwI/VirB6): binds

B3
binding result (TrwE/VirB10 [2]): binds
binding result (TrwF/VirB9): binds

B4
binding result (TrwK/VirB4): binds
binding result (TrwE/VirB10 [3]): binds

B5
binding result [4]: binds
binding result (TrwK/VirB4): binds

B6
binding result (TrwE/VirB10 [5]): binds
stoichiometry N [6]: 24 subunits
binding result (TrwK/VirB4): binds

B7
binding result (TrwE/VirB10 [2]): binds

B8
binding result (TrwE/VirB10 [3]): binds
